From US20100129369A1 (Eli Lilly, published 2010)
Changes are numbered by the printed parent chain.

B1: C8-H241 (antibody, human IgG2, kappa, V domains shown)
VH: QVQLVQSGAEVKKPGASVKVSCKASGYTFTDYYMHWVRQAPGQGLEWMGRVNPNRRGTTYNQKFEGRVTMTTDTSTSTAYMELRSLRSDDTAVYYCARANWLDYWGQGTTVTVSS
VL: DIQMTQSPSSLSASVGDRVTITCSVSSSVSSIYLHWYQQKPGKAPKLLIYSTSNLASGVPSRFSGSGSGTDFTLTISSLQPEDFATYYCQVYSGYPLTFGGGTKVEIKR
notes: Called IgG4, kappa; also called Mab C8-H241
B2: C8-co-16 (antibody, human IgG2, kappa, V domains shown)
VH: B1 VH with N54Y, R56G, G57S, W101I
VL: B1 VL with S30R, S93R
notes: Called IgG4, kappa

Legend:
Rat c-Met-Flis-Fc ECD = molecular target: T1, Rat c-Met-Flis-Fc ECD (rat); test: SPR (Biacore), antibody captured
T1 construct: also called Rat cMet-ECD-Fc-Flis; rat c-Met ECD
Procedure: (§1) A Biacore® 2000 instrument is used to measure the binding kinetics of c-Met antibodies to human, cynomolgus monkey, and rat c-Met ECDs. Measurements are performed at 25° C. Samples are dissolved in HBS-EP buffer (150 mM sodium chloride, 3 mM EDTA, 0.005% (w/v) surfactant P-20, and 10 mM N-2-hydroxyethylpiperazine-N′-2-ethanesulfonic acid (HEPES) at pH 7.4; #BR-1001-88).
(§2) Binding is evaluated using multiple cycles. Each cycle is performed at a flow rate of 50 μL/min., and consists of the following steps: injection of about 10 μL of a c-Met antibody at 10 μg/mL aiming at a capture of 40-100 RUs, injection of 250 μL of human, cynomolgus, or rat c-Met-Flis-Fc ECD (starting at 100 nM and using two-fold serial dilutions for each cycle) followed by 20 min. for dissociation, and regeneration using about 30 μL of 10 mM glycine hydrochloride, pH 1.5. Association and dissociation rates for each cycle are evaluated using a “1:1 (Langmuir) binding” model in the BIAevaluation software, version 4.1.

mouse c-Met ECD = molecular target: T2, mouse c-Met ECD (mouse, UniProt P16056 25-931); test: ELISA, coated ECD (data not shown)
T2 construct: extracellular domain

Human c-Met-Flis-Fc ECD [1] = molecular target: T3, Human c-Met-Flis-Fc ECD (human); test: ELISA, coated ECD-Fc, antibody 0.000 ng/mL
T3 construct: also called human c-Met extracellular domain (ECD)-Fc-Flis fusion; Human cMet-ECD-Fc-Flis
Procedure: (§3) Wells of 96-well EIA/RIA high binding plates (Costar, #2592) are coated with 100 μL of 1 μg/mL human c-Met extracellular domain (ECD)-Fc-Flis fusion (SEQ ID NO:72), RON-ECD-Fc (R&D Systems, #1947-MS), or PlexinA2-ECD-Fc (Abnova, Taipei, Taiwan #H00005362-P01) in coating buffer (BioFX Labs, # COAT-1000-01) overnight at 4° C. […] After the plates are washed, 100 μL/well of substrate solution (BioFx, #TMBW-1000-01) are added and the plates are incubated for 10 min. at room temperature. 100 μL/well of stop solution (BioFx, # LSTP-1000-01) are added to stop the reaction. The colorimetric signals are developed and read at 450 nm using a SpectraMax 190 plate reader (Molecular Devices, Sunnyvale, Calif.). c-Met antibody binding to c-Met, RON and PlexinA2 ECDs is proportional to color signal production.

Human c-Met-Flis-Fc ECD [2] = molecular target: T3, Human c-Met-Flis-Fc ECD; test: ELISA, coated ECD-Fc, antibody 0.002 ng/mL
Procedure: as §3

Human c-Met-Flis-Fc ECD [3] = molecular target: T3, Human c-Met-Flis-Fc ECD; test: ELISA, coated ECD-Fc, antibody 0.010 ng/mL
Procedure: as §3

Human c-Met-Flis-Fc ECD [4] = molecular target: T3, Human c-Met-Flis-Fc ECD; test: ELISA, coated ECD-Fc, antibody 0.060 ng/mL
Procedure: as §3

Human c-Met-Flis-Fc ECD [5] = molecular target: T3, Human c-Met-Flis-Fc ECD; test: ELISA, coated ECD-Fc, antibody 0.357 ng/mL
Procedure: as §3

Human c-Met-Flis-Fc ECD [6] = molecular target: T3, Human c-Met-Flis-Fc ECD; test: ELISA, coated ECD-Fc, antibody 2.143 ng/mL
Procedure: as §3

Human c-Met-Flis-Fc ECD [7] = molecular target: T3, Human c-Met-Flis-Fc ECD; test: ELISA, coated ECD-Fc, antibody 12.860 ng/mL
Procedure: as §3

Human c-Met-Flis-Fc ECD [8] = molecular target: T3, Human c-Met-Flis-Fc ECD; test: ELISA, coated ECD-Fc, antibody 77.160 ng/mL
Procedure: as §3

Human c-Met-Flis-Fc ECD [9] = molecular target: T3, Human c-Met-Flis-Fc ECD; test: ELISA, coated ECD-Fc, antibody 462.963 ng/mL
Procedure: as §3

Human c-Met-Flis-Fc ECD [10] = molecular target: T3, Human c-Met-Flis-Fc ECD; test: ELISA, coated ECD-Fc, antibody 2777.778 ng/mL
Procedure: as §3

Human c-Met-Flis-Fc ECD [11] = molecular target: T3, Human c-Met-Flis-Fc ECD; test: ELISA, coated ECD-Fc, antibody 16666.667 ng/mL
Procedure: as §3

Human c-Met-Flis-Fc ECD [12] = molecular target: T3, Human c-Met-Flis-Fc ECD; test: ELISA, coated ECD-Fc, antibody 100000.000 ng/mL
Procedure: as §3

Human c-Met-Flis-Fc ECD [13] = molecular target: T3, Human c-Met-Flis-Fc ECD; test: SPR Biacore, antibody captured, ECD-Fc analyte, 1:1 model
Procedure: as §1, §2

[14] = molecular target: T4, Cynomolgus Monkey c-Met-Flis-Fc ECD (cynomolgus monkey); test: as above
T4 construct: also called Cynomolgus Monkey cMet-ECD-Fc-Flis; cynomolgus monkey c-Met ECD
Procedure: as §1, §2

T4 sequence (chain, as listed by the source limits assumed): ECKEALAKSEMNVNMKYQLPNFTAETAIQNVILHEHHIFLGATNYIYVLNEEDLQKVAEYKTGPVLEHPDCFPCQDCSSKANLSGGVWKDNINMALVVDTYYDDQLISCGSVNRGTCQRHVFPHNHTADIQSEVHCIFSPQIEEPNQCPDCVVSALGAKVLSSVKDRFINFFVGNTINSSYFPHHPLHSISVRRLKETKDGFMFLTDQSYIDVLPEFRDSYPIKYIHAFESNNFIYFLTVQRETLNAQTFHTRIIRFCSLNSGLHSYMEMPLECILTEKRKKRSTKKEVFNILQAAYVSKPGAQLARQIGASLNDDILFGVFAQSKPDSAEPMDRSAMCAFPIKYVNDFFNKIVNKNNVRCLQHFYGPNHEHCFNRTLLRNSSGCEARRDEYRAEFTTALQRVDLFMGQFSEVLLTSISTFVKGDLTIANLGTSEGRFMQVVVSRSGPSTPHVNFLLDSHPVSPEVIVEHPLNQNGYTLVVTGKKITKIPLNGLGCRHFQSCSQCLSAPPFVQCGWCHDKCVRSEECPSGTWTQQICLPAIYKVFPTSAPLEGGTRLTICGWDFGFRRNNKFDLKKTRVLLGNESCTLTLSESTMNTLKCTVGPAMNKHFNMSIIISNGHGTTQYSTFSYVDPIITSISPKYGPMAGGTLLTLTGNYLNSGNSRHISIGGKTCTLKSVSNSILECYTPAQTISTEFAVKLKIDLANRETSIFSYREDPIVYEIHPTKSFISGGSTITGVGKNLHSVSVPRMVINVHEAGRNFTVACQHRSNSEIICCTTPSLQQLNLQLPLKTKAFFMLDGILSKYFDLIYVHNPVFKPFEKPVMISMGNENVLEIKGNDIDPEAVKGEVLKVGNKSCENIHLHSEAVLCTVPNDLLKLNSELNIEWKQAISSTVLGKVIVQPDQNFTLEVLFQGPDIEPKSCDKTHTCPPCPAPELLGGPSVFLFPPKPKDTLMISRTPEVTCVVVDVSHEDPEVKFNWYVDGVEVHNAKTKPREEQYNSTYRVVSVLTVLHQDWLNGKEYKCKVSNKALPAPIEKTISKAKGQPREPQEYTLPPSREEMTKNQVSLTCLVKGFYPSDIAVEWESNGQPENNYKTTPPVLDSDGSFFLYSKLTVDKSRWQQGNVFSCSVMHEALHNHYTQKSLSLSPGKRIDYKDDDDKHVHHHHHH
T3 sequence (chain, as listed by the source limits assumed): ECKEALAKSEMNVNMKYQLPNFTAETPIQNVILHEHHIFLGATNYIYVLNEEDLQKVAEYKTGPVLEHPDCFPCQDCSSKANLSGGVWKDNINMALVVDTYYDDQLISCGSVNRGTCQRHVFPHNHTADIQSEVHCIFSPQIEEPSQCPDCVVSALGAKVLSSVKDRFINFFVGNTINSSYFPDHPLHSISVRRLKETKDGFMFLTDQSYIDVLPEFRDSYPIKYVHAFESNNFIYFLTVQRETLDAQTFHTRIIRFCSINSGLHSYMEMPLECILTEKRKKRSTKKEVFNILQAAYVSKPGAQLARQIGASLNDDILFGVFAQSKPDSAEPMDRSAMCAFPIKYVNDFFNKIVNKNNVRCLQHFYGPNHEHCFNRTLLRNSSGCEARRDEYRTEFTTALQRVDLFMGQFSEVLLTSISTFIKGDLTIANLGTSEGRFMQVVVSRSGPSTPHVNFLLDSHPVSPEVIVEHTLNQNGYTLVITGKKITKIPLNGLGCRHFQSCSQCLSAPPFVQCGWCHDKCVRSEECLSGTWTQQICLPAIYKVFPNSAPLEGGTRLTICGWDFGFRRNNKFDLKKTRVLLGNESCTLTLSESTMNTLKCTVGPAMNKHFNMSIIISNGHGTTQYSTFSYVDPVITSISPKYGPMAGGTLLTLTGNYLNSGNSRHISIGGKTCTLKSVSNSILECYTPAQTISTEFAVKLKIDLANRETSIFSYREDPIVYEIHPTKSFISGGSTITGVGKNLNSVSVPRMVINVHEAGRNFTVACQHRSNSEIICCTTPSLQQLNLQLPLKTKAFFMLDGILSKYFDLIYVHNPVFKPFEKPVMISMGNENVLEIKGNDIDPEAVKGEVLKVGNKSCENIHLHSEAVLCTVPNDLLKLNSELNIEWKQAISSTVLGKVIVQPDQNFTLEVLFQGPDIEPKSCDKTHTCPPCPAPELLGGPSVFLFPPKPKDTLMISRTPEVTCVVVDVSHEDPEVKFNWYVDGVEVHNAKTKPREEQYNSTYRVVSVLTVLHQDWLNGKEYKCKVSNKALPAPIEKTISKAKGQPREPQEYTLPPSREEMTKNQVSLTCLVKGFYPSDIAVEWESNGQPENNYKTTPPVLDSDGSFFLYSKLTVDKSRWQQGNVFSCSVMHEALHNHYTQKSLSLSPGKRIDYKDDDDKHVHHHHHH
T2 sequence (P16056 25-931): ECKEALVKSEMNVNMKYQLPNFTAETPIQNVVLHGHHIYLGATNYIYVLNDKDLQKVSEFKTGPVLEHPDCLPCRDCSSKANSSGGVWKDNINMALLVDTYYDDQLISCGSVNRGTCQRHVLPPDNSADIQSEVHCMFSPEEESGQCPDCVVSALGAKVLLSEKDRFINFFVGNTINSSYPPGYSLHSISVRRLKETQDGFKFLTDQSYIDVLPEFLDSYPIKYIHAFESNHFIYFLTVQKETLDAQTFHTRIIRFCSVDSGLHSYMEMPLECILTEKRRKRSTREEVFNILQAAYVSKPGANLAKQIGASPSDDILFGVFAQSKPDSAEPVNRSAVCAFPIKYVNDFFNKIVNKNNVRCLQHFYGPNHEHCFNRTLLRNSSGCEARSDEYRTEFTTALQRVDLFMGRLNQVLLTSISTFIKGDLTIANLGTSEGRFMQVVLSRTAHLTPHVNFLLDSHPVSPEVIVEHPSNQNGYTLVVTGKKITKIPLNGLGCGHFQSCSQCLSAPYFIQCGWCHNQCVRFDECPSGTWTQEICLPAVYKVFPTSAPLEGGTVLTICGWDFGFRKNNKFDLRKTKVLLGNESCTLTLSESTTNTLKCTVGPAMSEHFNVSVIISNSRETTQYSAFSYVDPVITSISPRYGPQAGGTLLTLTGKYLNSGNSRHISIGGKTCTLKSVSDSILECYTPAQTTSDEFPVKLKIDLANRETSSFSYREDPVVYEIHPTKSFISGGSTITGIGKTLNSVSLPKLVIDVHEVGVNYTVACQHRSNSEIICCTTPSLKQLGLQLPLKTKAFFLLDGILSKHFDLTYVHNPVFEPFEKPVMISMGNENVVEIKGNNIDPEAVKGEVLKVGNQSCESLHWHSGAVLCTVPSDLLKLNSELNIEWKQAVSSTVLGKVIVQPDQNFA
T1 sequence (chain, as listed by the source limits assumed): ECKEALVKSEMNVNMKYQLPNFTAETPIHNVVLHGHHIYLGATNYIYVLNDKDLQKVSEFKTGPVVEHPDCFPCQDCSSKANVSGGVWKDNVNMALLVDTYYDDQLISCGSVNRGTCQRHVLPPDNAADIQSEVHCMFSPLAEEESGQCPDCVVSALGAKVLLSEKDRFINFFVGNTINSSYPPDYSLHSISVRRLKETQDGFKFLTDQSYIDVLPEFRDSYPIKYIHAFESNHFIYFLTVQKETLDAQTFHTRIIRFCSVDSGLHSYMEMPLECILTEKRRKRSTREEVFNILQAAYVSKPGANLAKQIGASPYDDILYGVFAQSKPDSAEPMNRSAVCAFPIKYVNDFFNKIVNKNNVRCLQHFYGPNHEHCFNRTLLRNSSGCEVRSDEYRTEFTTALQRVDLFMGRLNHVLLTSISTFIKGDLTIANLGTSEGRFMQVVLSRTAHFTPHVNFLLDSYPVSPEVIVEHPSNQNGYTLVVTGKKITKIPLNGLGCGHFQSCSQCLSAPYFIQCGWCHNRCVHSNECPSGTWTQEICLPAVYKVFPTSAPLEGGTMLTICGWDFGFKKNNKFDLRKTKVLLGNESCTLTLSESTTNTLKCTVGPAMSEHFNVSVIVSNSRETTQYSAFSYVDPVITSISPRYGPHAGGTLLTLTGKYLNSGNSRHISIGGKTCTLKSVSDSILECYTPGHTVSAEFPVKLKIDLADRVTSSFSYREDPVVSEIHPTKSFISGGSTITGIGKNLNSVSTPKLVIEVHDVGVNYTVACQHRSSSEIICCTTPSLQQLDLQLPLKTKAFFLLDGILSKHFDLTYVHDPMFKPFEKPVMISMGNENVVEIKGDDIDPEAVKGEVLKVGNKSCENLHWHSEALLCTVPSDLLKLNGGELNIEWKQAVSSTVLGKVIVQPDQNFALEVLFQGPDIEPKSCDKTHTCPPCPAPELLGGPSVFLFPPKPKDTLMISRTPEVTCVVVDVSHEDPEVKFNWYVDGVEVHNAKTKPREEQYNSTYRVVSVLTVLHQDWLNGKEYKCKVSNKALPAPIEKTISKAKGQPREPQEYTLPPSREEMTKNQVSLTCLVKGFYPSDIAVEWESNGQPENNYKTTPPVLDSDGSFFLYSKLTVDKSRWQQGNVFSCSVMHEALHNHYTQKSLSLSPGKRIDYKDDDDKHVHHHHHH

Binder | binding result (Rat c-Met-Flis-Fc ECD) | binding result (mouse c-Met ECD) | Average A450 nm (Human c-Met-Flis-Fc ECD [1]) | Average A450 nm (Human c-Met-Flis-Fc ECD [2]) | Average A450 nm (Human c-Met-Flis-Fc ECD [3]) | Average A450 nm (Human c-Met-Flis-Fc ECD [4]) | Average A450 nm (Human c-Met-Flis-Fc ECD [5]) | Average A450 nm (Human c-Met-Flis-Fc ECD [6]) | Average A450 nm (Human c-Met-Flis-Fc ECD [7]) | Average A450 nm (Human c-Met-Flis-Fc ECD [8]) | Average A450 nm (Human c-Met-Flis-Fc ECD [9]) | Average A450 nm (Human c-Met-Flis-Fc ECD [10]) | Average A450 nm (Human c-Met-Flis-Fc ECD [11]) | Average A450 nm (Human c-Met-Flis-Fc ECD [12]) | Kd (Human c-Met-Flis-Fc ECD [13]) | Kd [14] | koff (Human c-Met-Flis-Fc ECD [13]) | kon (Human c-Met-Flis-Fc ECD [13]) | koff [14] | kon [14]
B1 | no binding | no binding (tested: 100 nM) | 0.3 A450 nm | 0.317 A450 nm | 0.317 A450 nm | 0.484 A450 nm | 0.902 A450 nm | 2.86 A450 nm | 4 A450 nm | 4 A450 nm | 4 A450 nm | 4 A450 nm | 4 A450 nm | 4 A450 nm | < 100 pM | < 200 pM |  |  |  | 
B2 | no binding | no binding (tested: 100 nM) | 0.335 A450 nm | 0.369 A450 nm | 0.374 A450 nm | 0.446 A450 nm | 0.907 A450 nm | 2.89 A450 nm | 4 A450 nm | 4 A450 nm | 4 A450 nm | 4 A450 nm | 4 A450 nm | 4 A450 nm | 300 pM | < 100 pM | 3e-05 s⁻¹ | 110000 M⁻¹ s⁻¹ | < 1e-05 s⁻¹ | 103000 M⁻¹ s⁻¹
